Source: article PMC12846601

Target: HexaPro, recombinant SARS-CoV-2 spike protein vaccine candidate (SARS-CoV-2) (UniProt P0DTC2)
Test: SEC; […], PBS ([…], pH 6.5), 1.25 mL/min, […]

Substance “HexaPro, recombinant SARS-CoV-2 spike protein vaccine candidate (from UniProt P0DTC2 14-1273) (natural protein)” has a stoichiometry N of 3.
